# What was measured:
# [1] = target: Masked SpyCatcher003 (N-terminal His6 tag-SpyCatcher003-TEV protease cleavage site-SpyTag003 D117A); test: covalent coupling (isopeptide bond) followed by SDS-PAGE and densitometry; Masked SpyCatcher003, before or after cleavage by superTEV protease, with SpyTag003-MBP; both partners at 5 µM, 37 °C, PBS pH 7.4, time course
# [2] = target: Unmasked Catcher (Masked SpyCatcher003 after cleavage by superTEV protease); test: as above
# [3] = target: DoubleCatcher (N-terminal His6 tag-TEV protease cleavage site-two SpyCatcher003 moieties connected by a (GSG)3 spacer-TEV protease cleavage site-SpyTag003 DA); test: covalent coupling (isopeptide bond) followed by SDS-PAGE and densitometry; DoubleCatcher 2.5 µM with SpyTag003-mClover3 5 µM, no TEV protease, PBS pH 7.4, 37 °C, time course
# [4] = target: unmasked DoubleCatcher:SpyTag003-MBP; test: covalent coupling (isopeptide bond) followed by SDS-PAGE and densitometry; step 1: DoubleCatcher with two-fold excess SpyTag003-MBP for 2 h, excess removed on bead-immobilized SpyCatcher003; step 2: superTEV protease at 34 °C, then 2 µM of the cleaved construct with 10 µM SUMO-SpyTag003, time course
substance,measurement,setting,value
SpyTag003 linked to maltose-binding protein (MBP),percent reacted after 60 min,[1],3.7%
same,half-time of reaction (t1/2),[2],2.7 min
same,percent reacted,[2],> 99%
SpyTag003 linked to the green fluorescent protein mClover3,half-time of reaction (t1/2),[3],0.58 min
same,percent reacted after 1 h,[3],91%
SpyTagged Small Ubiquitin-like Modifier (N-terminal His6 tag-SUMO protein-SpyTag003),half-time of reaction (t1/2),[4],3.6 min
same,percent reacted,[4],> 98%

# Reference: PMC10944524
